# “And” between values parts separate entries of the source, which are not always exact repeats. Equal values may be shown once. Read-outs that look alike come from different tables or passages of the source.
# B1: pp296: modified PlySs2 lysin, SEQ ID NO: 6: L92W, V104S, V128T, Y137S, Y164K, N184D, S198Q (protein)
# chain: MTTVNEALNNVRAQVGSGVSVGNGECYALASWYERMISPDATVGLGAGVGWVSGAIGDTISAKNIGSSYNWQANGWTVSTSGPFKAGQIVTWGATPGNPYGHVSIVEAVDGDRLTILEQNYGGKRYPTRNYYSAASSRQQVVHYITPPGTVAQSAPNLAGSRSKRETGTMTVTVDALNVRRAPDTSGEIVAVYKRGEQFDYDTAIIDVNGYAWVSYIGGSGKRNYVATGATKDGKRFGNAWGTFK
# Legend:
# [1] = test system: S. aureus isolates; assay: MIC determination (broth microdilution) against 8 S. aureus isolates; assay type: cell-based; parameters: MIC pp296 (AST media): unit not given beside the values; conditions: for MIC pp296 (mouse serum): 100% ICR mouse serum; for MIC pp296 (human serum): 100% human serum; for MIC pp296 (AST media): caMHB-HSD
# Protocol: Suitable methods for assessing the activity of a modified lysin polypeptide as disclosed herein are well known in the art and described in the examples. […] For example, MIC values for a modified lysin polypeptide may be determined against e.g., laboratory Staphylococcus aureus strains, in e.g., Mueller-Hinton broth or Mueller-Hinton broth supplemented with serum, such as horse serum.
# The pp296 MICs were determined based on (1) cation-adjusted Mueller-Hinton Broth with 25% horse serum and 0.5 mM DTT (caMHB-HSD); (2) human serum (100% serum); and (3) ICR mice (100% serum). Vancomycin and daptomycin MICs of the isolate strains were determined in accordance with the broth microdilution method as outlined by CLSI. Results of the MIC determination are shown below in Table 2. The bacterial isolates were frozen at −80° C. in skim milk.
# [2] = test system: S. aureus isolates; assay: In vivo efficacy of vancomycin in combination with pp296, neutropenic murine thigh infection model; conditions: 24 h
# Protocol: (§1) Study animals: Specific pathogen-free female ICR mice (average body weight 23 grams) were provided food and water ad libitum and maintained and used in accordance with National Research Council recommendations. Animals were allowed a 48-hour post-delivery acclimation period before every experiment. Mice were rendered transiently neutropenic by injection of cyclophosphamide via intraperitoneal (IP) route at a dose of 150 mg/kg of body weight at four days before bacterial inoculation and 100 mg/kg of body weight at one day before bacterial inoculation.
# Neutropenic Thigh Infection Model: Two transfers of the bacterial isolates were performed onto trypticase soy agar plates with 5% sheep blood and placed into an incubator at 37° C. for approximately 24 hours. After an 18-24 hour incubation of the second transfer, a suspension of approximately 10^7 CFU/mL was made for inoculation. Final bacterial inoculum concentrations were confirmed by serial dilution and plating techniques. Thigh infection with the test isolate was produced by intramuscular injection of 0.1 mL of the bacterial inoculum into each thigh of the mice. Antimicrobial therapy was initiated 2 hours after bacterial inoculation, as detailed below. […]
# (§2) Untreated control mice (n=3) were sacrificed just prior to antibiotic administration and 24 hours after bacterial inoculation. Animals sacrificed prior to antibiotic initiation served as 0-hour control animals, representing initial bacterial burden. […] Treatment mice (n=3/group) were sacrificed at the end of the 24 hour treatment period. After sacrifice, both thighs for each mouse were homogenized in normal saline. Serial dilutions were plated on Trypticase soy agar with 5% sheep blood and incubated for 18 to 20 hours at 37.0 to determine the CFU. Efficacy was calculated as the change in bacterial density obtained in treated mice after 24 hours compared with the numbers in the 0-hour control animals. Bacterial density represents the average CFU determined from 3 mice, each contributing 2 thighs.
# [3] = test system: S. aureus isolates; assay: In vivo efficacy of daptomycin in combination with pp296, neutropenic murine thigh infection model; conditions: 24 h
# Protocol: as §1
# Neutropenic Thigh Infection Model: Two transfers of the bacterial isolates were performed onto trypticase soy agar plates with 5% sheep blood and placed into an incubator at 37° C. for approximately 24 hours. After an 18-24 hour incubation of the second transfer, a suspension of approximately 10^7 CFU/mL was made for inoculation. Final bacterial inoculum concentrations were confirmed by serial dilution and plating techniques. Thigh infection with the test isolate was produced by intramuscular injection of 0.1 mL of the bacterial inoculum into each thigh of the mice. Antimicrobial therapy was initiated 2 hours after bacterial inoculation, as detailed below.
# as §2
# For the 4 S. aureus isolates HPV107, CAIRD426, JMI227, and NRS123, the following sub-therapeutic daptomycin dosage regimen was adopted: 0.76 mg/kg at 0 hrs, 0.4 mg/kg at 4 hrs, 0.24 mg/kg at 10 hrs, and 0.12 mg/kg at 17 hrs.
# [4] = test system: 5 MSSA and 5 MRSA isolates; conditions: cited from earlier work
molecule,measurement,setting,value
B1,MIC pp296 (mouse serum),[1]; ATCC 29213 MSSA,256
same,MIC pp296 (mouse serum),[1]; CAIRD426 MRSA,32
same,MIC pp296 (mouse serum),[1]; HPV107 MRSA,128
same,MIC pp296 (mouse serum),[1]; JMI227 MRSA,64
same,MIC pp296 (mouse serum),[1]; JMI4789 MRSA,256
same,MIC pp296 (mouse serum),[1]; NRS100 (COL) MRSA,32
same,MIC pp296 (mouse serum),[1]; NRS123 (MW2) MRSA,256
same,MIC pp296 (mouse serum),[1]; NRS271 MRSA/LRSA,64
same,MIC pp296 (human serum),[1]; ATCC 29213 MSSA,1
same,MIC pp296 (human serum),[1]; CAIRD426 MRSA,1
same,MIC pp296 (human serum),[1]; HPV107 MRSA,1
same,MIC pp296 (human serum),[1]; JMI227 MRSA,1
same,MIC pp296 (human serum),[1]; JMI4789 MRSA,1
same,MIC pp296 (human serum),[1]; NRS100 (COL) MRSA,1
same,MIC pp296 (human serum),[1]; NRS123 (MW2) MRSA,1
same,MIC pp296 (human serum),[1]; NRS271 MRSA/LRSA,0.5
same,MIC pp296 (AST media),[1]; ATCC 29213 MSSA,1
same,MIC pp296 (AST media),[1]; CAIRD426 MRSA,1
same,MIC pp296 (AST media),[1]; HPV107 MRSA,1
same,MIC pp296 (AST media),[1]; JMI227 MRSA,0.5
same,MIC pp296 (AST media),[1]; JMI4789 MRSA,1
same,MIC pp296 (AST media),[1]; NRS100 (COL) MRSA,1
same,MIC pp296 (AST media),[1]; NRS123 (MW2) MRSA,1
same,MIC pp296 (AST media),[1]; NRS271 MRSA/LRSA,1
same,Replicate Log10 CFU/thigh data,"[2]; ATCC2921, pp296 50 mg/kg alone, 50 mg/kg",8.15 Log10 CFU/thigh (2×) and 8.58 Log10 CFU/thigh and 7.86 Log10 CFU/thigh and 6.81 Log10 CFU/thigh and 8.00 Log10 CFU/thigh
same,Replicate Log10 CFU/thigh data,"[2]; CAIRD426, pp296 50 mg/kg alone (VAN 1.5 mg/kg study)",5.41 Log10 CFU/thigh and 5.80 Log10 CFU/thigh and 7.92 Log10 CFU/thigh and 8.33 Log10 CFU/thigh and 4.90 Log10 CFU/thigh and 6.18 Log10 CFU/thigh
same,Replicate Log10 CFU/thigh data,"[2]; CAIRD426, pp296 50 mg/kg alone, Run #1, 50 mg/kg",6.04 Log10 CFU/thigh and 4.62 Log10 CFU/thigh and 5.46 Log10 CFU/thigh and 4.94 Log10 CFU/thigh and 6.53 Log10 CFU/thigh and 6.00 Log10 CFU/thigh
same,Replicate Log10 CFU/thigh data,"[2]; CAIRD426, pp296 50 mg/kg alone, Run #2, 50 mg/kg",8.14 Log10 CFU/thigh and 7.97 Log10 CFU/thigh and 4.83 Log10 CFU/thigh and 4.79 Log10 CFU/thigh and 5.84 Log10 CFU/thigh and 6.07 Log10 CFU/thigh
same,Replicate Log10 CFU/thigh data,"[2]; HPV107, pp296 50 mg/kg alone (VAN 1.5 mg/kg study)",8.08 Log10 CFU/thigh and 8.00 Log10 CFU/thigh and 7.05 Log10 CFU/thigh and 7.21 Log10 CFU/thigh and 4.64 Log10 CFU/thigh and 6.57 Log10 CFU/thigh
same,Replicate Log10 CFU/thigh data,"[2]; HPV107, pp296 50 mg/kg alone, Run #1, 50 mg/kg",5.08 Log10 CFU/thigh and 4.96 Log10 CFU/thigh and 5.36 Log10 CFU/thigh and 6.45 Log10 CFU/thigh and 6.14 Log10 CFU/thigh and 6.78 Log10 CFU/thigh
same,Replicate Log10 CFU/thigh data,"[2]; HPV107, pp296 50 mg/kg alone, Run #2, 50 mg/kg",7.35 Log10 CFU/thigh and 8.03 Log10 CFU/thigh (2×) and 6.53 Log10 CFU/thigh and 7.04 Log10 CFU/thigh and 6.30 Log10 CFU/thigh
same,Replicate Log10 CFU/thigh data,"[2]; JMI227, pp296 50 mg/kg alone, 50 mg/kg",5.01 Log10 CFU/thigh and 6.67 Log10 CFU/thigh and 7.71 Log10 CFU/thigh and 8.05 Log10 CFU/thigh and 4.72 Log10 CFU/thigh and 7.34 Log10 CFU/thigh
same,Replicate Log10 CFU/thigh data,"[2]; JMI4789, pp296 50 mg/kg alone, 50 mg/kg",5.02 Log10 CFU/thigh and 5.19 Log10 CFU/thigh and 7.69 Log10 CFU/thigh and 8.08 Log10 CFU/thigh and 5.11 Log10 CFU/thigh and 6.15 Log10 CFU/thigh
same,Replicate Log10 CFU/thigh data,"[2]; NRS100, pp296 50 mg/kg alone (VAN 1.5 mg/kg study)",4.79 Log10 CFU/thigh and 5.29 Log10 CFU/thigh and 4.72 Log10 CFU/thigh and 4.90 Log10 CFU/thigh (2×) and 5.73 Log10 CFU/thigh
same,Replicate Log10 CFU/thigh data,"[2]; NRS100, pp296 50 mg/kg alone, Run #1, 50 mg/kg",4.75 Log10 CFU/thigh and 4.81 Log10 CFU/thigh and 4.78 Log10 CFU/thigh and 4.83 Log10 CFU/thigh and 4.48 Log10 CFU/thigh and 4.70 Log10 CFU/thigh
same,Replicate Log10 CFU/thigh data,"[2]; NRS100, pp296 50 mg/kg alone, Run #2, 50 mg/kg",4.62 Log10 CFU/thigh and 4.73 Log10 CFU/thigh and 4.66 Log10 CFU/thigh and 4.41 Log10 CFU/thigh and 5.94 Log10 CFU/thigh and 6.34 Log10 CFU/thigh
same,Replicate Log10 CFU/thigh data,"[2]; NRS123, pp296 50 mg/kg alone, 50 mg/kg",6.53 Log10 CFU/thigh and 8.01 Log10 CFU/thigh and 8.08 Log10 CFU/thigh and 7.48 Log10 CFU/thigh and 8.41 Log10 CFU/thigh and 8.38 Log10 CFU/thigh
same,Replicate Log10 CFU/thigh data,"[2]; NRS217, pp296 50 mg/kg alone (VAN 1.5 mg/kg study)",7.46 Log10 CFU/thigh and 7.45 Log10 CFU/thigh and 4.60 Log10 CFU/thigh and 4.79 Log10 CFU/thigh and 7.49 Log10 CFU/thigh and 6.72 Log10 CFU/thigh
same,Replicate Log10 CFU/thigh data,"[2]; NRS217, pp296 50 mg/kg alone, Run #1, 50 mg/kg",4.75 Log10 CFU/thigh and 6.79 Log10 CFU/thigh and 5.06 Log10 CFU/thigh and 4.93 Log10 CFU/thigh and 5.72 Log10 CFU/thigh and 5.76 Log10 CFU/thigh
same,Replicate Log10 CFU/thigh data,"[2]; NRS217, pp296 50 mg/kg alone, Run #2, 50 mg/kg",5.35 Log10 CFU/thigh and 5.98 Log10 CFU/thigh and 6.08 Log10 CFU/thigh and 5.42 Log10 CFU/thigh and 4.32 Log10 CFU/thigh and 6.26 Log10 CFU/thigh
same,Replicate Log10 CFU/thigh data,"[2]; isolate CAIRD426, pp296 50 mg/kg alone, VAN 5 mg/kg study",8.95 Log10 CFU/thigh and 7.96 Log10 CFU/thigh and 7.74 Log10 CFU/thigh and 8.34 Log10 CFU/thigh
same,mean bacterial density vs starting inoculum,"[2]; pp296 0.5 mg/kg IV + vancomycin 1.5 mg/kg SC, 4 isolates",0.92±1.24 log10 CFU/thigh
same,mean bacterial reduction vs starting inoculum,"[2]; pp296 0.5 mg/kg IV + vancomycin 3 mg/kg q12h SC, 8 isolates",−0.26±1.10 log10 CFU/thigh
same,mean bacterial reduction vs starting inoculum,"[2]; pp296 0.5 mg/kg IV + vancomycin 5 mg/kg SC, 4 isolates",−0.59±0.79 log10 CFU/thigh
same,mean bacterial density vs starting inoculum,"[2]; pp296 50 mg/kg IV + vancomycin 1.5 mg/kg SC, 4 isolates",−0.61±0.82 log10 CFU/thigh
same,mean bacterial reduction vs starting inoculum,"[2]; pp296 50 mg/kg IV + vancomycin 3 mg/kg q12h SC, 8 isolates",−1.01±0.41 log10 CFU/thigh
same,mean bacterial reduction vs starting inoculum,"[2]; pp296 50 mg/kg IV + vancomycin 5 mg/kg SC, 4 isolates",−0.85±0.54 log10 CFU/thigh
same,average growth vs starting inoculum,"[2]; pp296 50 mg/kg alone, 4 isolates (VAN 1.5 mg/kg study)",0.75±1.24 log10 CFU/thigh
same,average growth vs starting inoculum,"[2]; pp296 50 mg/kg alone, 4 isolates (VAN 5 mg/kg study)",1.44±1.43 log10 CFU/thigh
same,average growth vs starting inoculum,"[2]; pp296 50 mg/kg q24h IV alone, 8 isolates (VAN 3 mg/kg study)",0.37±1.27 log10 CFU/thigh
same,mean bacterial density vs starting inoculum,[3]; pp296 0.5 mg/kg IV + sub-therapeutic daptomycin,0.80±1.19 log10 CFU/thigh
same,mean bacterial density vs starting inoculum,[3]; pp296 50 mg/kg IV + sub-therapeutic daptomycin,−0.72±0.59 log10 CFU/thigh
same,average growth vs starting inoculum,"[3]; pp296 50 mg/kg alone, 8 isolates (daptomycin study)",1.36±1.35 log10 CFU/thigh
same,FIC index,[4]; with daptomycin,~0.5
same,FIC index,[4]; with vancomycin,~0.5
